Drawing on article PMC7459424, this text covers stoichiometry N for one molecule.

The assay concerns the target T1, recombinant Strep-Flag-IL-17 (SF-IL-17), murine (mouse), Q62386.
T1 chain: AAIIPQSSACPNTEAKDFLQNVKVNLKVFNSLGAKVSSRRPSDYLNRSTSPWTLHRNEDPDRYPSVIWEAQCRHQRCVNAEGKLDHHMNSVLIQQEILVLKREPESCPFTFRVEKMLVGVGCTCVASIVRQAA
The assay can be described thus: SDS-PAGE without and with DTT, Coomassie stain; purified SF-IL-17 in SDS sample buffer, untreated or reduced with 50 mM DTT. As to conditions: remark: other sources report otherwise.

B1: recombinant Strep-Flag-IL-17 (SF-IL-17), murine, Q62386 26-158 (ligand)
chain: T1 chain
The term stoichiometry N denotes the number of molecules, sites or subunits per partner or assembly. B1: the stoichiometry N is 2.
